T1: Bcl-w, Q92843
T1 chain: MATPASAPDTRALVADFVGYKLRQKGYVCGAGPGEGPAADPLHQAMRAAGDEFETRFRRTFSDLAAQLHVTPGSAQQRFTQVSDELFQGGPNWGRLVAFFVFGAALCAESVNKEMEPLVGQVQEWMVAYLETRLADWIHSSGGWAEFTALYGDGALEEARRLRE

T2: Bfl-1, Q16548
T2 chain: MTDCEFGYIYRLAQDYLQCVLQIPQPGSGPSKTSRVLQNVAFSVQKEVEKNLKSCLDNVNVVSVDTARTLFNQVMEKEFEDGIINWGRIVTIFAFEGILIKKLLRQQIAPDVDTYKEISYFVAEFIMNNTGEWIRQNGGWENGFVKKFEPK

T3: Mcl-1, Q07820
T3 chain: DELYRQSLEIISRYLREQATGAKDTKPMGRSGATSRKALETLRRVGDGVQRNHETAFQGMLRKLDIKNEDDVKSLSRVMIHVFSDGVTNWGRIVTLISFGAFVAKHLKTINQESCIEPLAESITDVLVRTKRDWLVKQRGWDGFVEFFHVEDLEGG


These binders were tested against Bcl-2, P10415 (assay: peptide SPOT array, c-Myc-tagged receptor at 1 uM or 100 nM, anti-c-Myc-Cy3).
Chain of Bcl-2, P10415 (P10415 1-217): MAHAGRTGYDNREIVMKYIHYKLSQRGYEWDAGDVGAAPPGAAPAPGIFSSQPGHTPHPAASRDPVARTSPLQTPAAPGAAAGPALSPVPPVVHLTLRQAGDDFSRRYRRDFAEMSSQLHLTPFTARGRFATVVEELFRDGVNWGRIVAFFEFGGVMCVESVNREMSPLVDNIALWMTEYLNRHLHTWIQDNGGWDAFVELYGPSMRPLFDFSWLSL

Row | Binder | SPOT signal as a fraction of Bim BH3's signal on the same receptor and array
1 | CQGDTVISECLQRFADSLQEVVNYHM [ACAP3] | 0.01
2 | RAIPIKQGILLKRSGKSLNKEWKKKY [AGAP3] | 0.19
3 | TSQTEGLSRLLRQHAEDLNSGPLSKL [FES] | 0.01
4 | EKNLPKMAEALAHGADVNWANSEENK [ACAP2] | 0.01
5 | LGHTGLACLFLKRGADLGARDSEGRD [ACAP1] | 0.03
6 | AEHEDDLPENLSEIADLWNSPTRTHG [CDH23] | 0.01
7 | EVKQSMSSQSLDKAAEDMPEAEQDLE [APBA1] | 0.01
8 | FDHMVPLVEEINRLADELNPLNASQE [C7orf26] | 0.01
9 | PRPLSILGNLLLLCSQDMLTSLTKLS [CYP2F1] | 0.03

Next, values leading:

Row | SPOT signal as a fraction of Bim BH3's signal on the same receptor and array | Binder
10 | 0.01 | KCRHEEVVQVLRNAGEEVTLTVSFLK [SNTG1]
11 | 0.01 | PVGYLVESGRLSVMGCDVLKAVSDYF [MFI2]
12 | 0.01 | DSLAKFAGRKLKDCGEDLLVEISEVL [PCM1]
13 | 0.03 | KRALIQCAKDIAKASDEVTRLAKEVA [VCL]
14 | 0.01 | FQQTISCPEGLRLVGSEVGDRTLPGW [IRF3]
15 | 0.14 | RTNNYQLSDELRKNGVELTSLRQKVA [GRIPAP1]
16 | 0.04 | GMTSEQVAQVLRNCGNSVRMLVARDP [INADL]
17 | 0.03 | YNLKSPAVKRLMKEAAELKDPTDHYH [UBE2J1]
18 | 0.02 | RIEERKAIIGLYNYAHEMTHGASDRE [NCKAP1]
19 | 0.01 | ASGNKEMIEALKQYAMDYSNKALEKG [IFIT3]
20 | 0.05 | CLKRCRSAQVLHLYGATYSADGEDRA [NLRP12]
21 | 0.02 | TCLNRGFSRLLDNMAEFFRPTEQDLQ [PEX3]
22 | 0.01 | FVGCEFLHHLLREWGEELQAVLRSSQ [GEMIN4]

Target: T1, Bcl-w, Q92843
Test: as above

Row | Binder | SPOT signal as a fraction of Bim BH3's signal on the same receptor and array
23 | CQGDTVISECLQRFADSLQEVVNYHM [ACAP3] | 0.02
24 | RAIPIKQGILLKRSGKSLNKEWKKKY [AGAP3] | 0.64
25 | TSQTEGLSRLLRQHAEDLNSGPLSKL [FES] | 0.09
26 | EKNLPKMAEALAHGADVNWANSEENK [ACAP2] | 0.01
27 | LGHTGLACLFLKRGADLGARDSEGRD [ACAP1] | 0.1
28 | AEHEDDLPENLSEIADLWNSPTRTHG [CDH23] | 0.02
29 | EVKQSMSSQSLDKAAEDMPEAEQDLE [APBA1] | 0.02
30 | FDHMVPLVEEINRLADELNPLNASQE [C7orf26] | 0.02
31 | PRPLSILGNLLLLCSQDMLTSLTKLS [CYP2F1] | 0.11

Results, then the binder that gave them:

Row | SPOT signal as a fraction of Bim BH3's signal on the same receptor and array | Binder
32 | 0.01 | KCRHEEVVQVLRNAGEEVTLTVSFLK [SNTG1]
33 | 0.02 | PVGYLVESGRLSVMGCDVLKAVSDYF [MFI2]
34 | 0.02 | DSLAKFAGRKLKDCGEDLLVEISEVL [PCM1]
35 | 0.15 | KRALIQCAKDIAKASDEVTRLAKEVA [VCL]
36 | 0.02 | FQQTISCPEGLRLVGSEVGDRTLPGW [IRF3]
37 | 0.51 | RTNNYQLSDELRKNGVELTSLRQKVA [GRIPAP1]
38 | 0.06 | GMTSEQVAQVLRNCGNSVRMLVARDP [INADL]
39 | 0.08 | YNLKSPAVKRLMKEAAELKDPTDHYH [UBE2J1]
40 | 0.03 | RIEERKAIIGLYNYAHEMTHGASDRE [NCKAP1]
41 | 0.04 | ASGNKEMIEALKQYAMDYSNKALEKG [IFIT3]
42 | 0.07 | CLKRCRSAQVLHLYGATYSADGEDRA [NLRP12]
43 | 0.03 | TCLNRGFSRLLDNMAEFFRPTEQDLQ [PEX3]
44 | 0.02 | FVGCEFLHHLLREWGEELQAVLRSSQ [GEMIN4]

Each binder was assayed against Bcl-xL, Q07817 in the same assay as above.
Chain of Bcl-xL, Q07817 (Q07817 1-209): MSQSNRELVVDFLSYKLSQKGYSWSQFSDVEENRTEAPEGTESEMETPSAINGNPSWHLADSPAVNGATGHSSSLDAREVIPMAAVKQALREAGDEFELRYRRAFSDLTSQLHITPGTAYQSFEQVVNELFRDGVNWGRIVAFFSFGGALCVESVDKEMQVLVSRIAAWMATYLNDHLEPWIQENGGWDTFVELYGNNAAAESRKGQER

Row | Binder | SPOT signal as a fraction of Bim BH3's signal on the same receptor and array
45 | CQGDTVISECLQRFADSLQEVVNYHM [ACAP3] | 0.02
46 | RAIPIKQGILLKRSGKSLNKEWKKKY [AGAP3] | 1.42
47 | TSQTEGLSRLLRQHAEDLNSGPLSKL [FES] | 0.05
48 | EKNLPKMAEALAHGADVNWANSEENK [ACAP2] | 0.02
49 | LGHTGLACLFLKRGADLGARDSEGRD [ACAP1] | 0.14
50 | AEHEDDLPENLSEIADLWNSPTRTHG [CDH23] | 0.02
51 | EVKQSMSSQSLDKAAEDMPEAEQDLE [APBA1] | 0.02
52 | FDHMVPLVEEINRLADELNPLNASQE [C7orf26] | 0.02
53 | PRPLSILGNLLLLCSQDMLTSLTKLS [CYP2F1] | 0.2

The next lines start with the values.

Row | SPOT signal as a fraction of Bim BH3's signal on the same receptor and array | Binder
54 | 0.02 | KCRHEEVVQVLRNAGEEVTLTVSFLK [SNTG1]
55 | 0.04 | PVGYLVESGRLSVMGCDVLKAVSDYF [MFI2]
56 | 0.02 | DSLAKFAGRKLKDCGEDLLVEISEVL [PCM1]
57 | 0.12 | KRALIQCAKDIAKASDEVTRLAKEVA [VCL]
58 | 0.03 | FQQTISCPEGLRLVGSEVGDRTLPGW [IRF3]
59 | 0.39 | RTNNYQLSDELRKNGVELTSLRQKVA [GRIPAP1]
60 | 0.18 | GMTSEQVAQVLRNCGNSVRMLVARDP [INADL]
61 | 0.19 | YNLKSPAVKRLMKEAAELKDPTDHYH [UBE2J1]
62 | 0.04 | RIEERKAIIGLYNYAHEMTHGASDRE [NCKAP1]
63 | 0.06 | ASGNKEMIEALKQYAMDYSNKALEKG [IFIT3]
64 | 0.19 | CLKRCRSAQVLHLYGATYSADGEDRA [NLRP12]
65 | 0.06 | TCLNRGFSRLLDNMAEFFRPTEQDLQ [PEX3]
66 | 0.04 | FVGCEFLHHLLREWGEELQAVLRSSQ [GEMIN4]

Target: T2, Bfl-1, Q16548
Test: as above

Row | Binder | SPOT signal as a fraction of Bim BH3's signal on the same receptor and array
67 | CQGDTVISECLQRFADSLQEVVNYHM [ACAP3] | 0.11
68 | RAIPIKQGILLKRSGKSLNKEWKKKY [AGAP3] | 0.52
69 | TSQTEGLSRLLRQHAEDLNSGPLSKL [FES] | 0.05
70 | EKNLPKMAEALAHGADVNWANSEENK [ACAP2] | 0.01
71 | LGHTGLACLFLKRGADLGARDSEGRD [ACAP1] | 0.21
72 | AEHEDDLPENLSEIADLWNSPTRTHG [CDH23] | 0.01
73 | EVKQSMSSQSLDKAAEDMPEAEQDLE [APBA1] | 0.02
74 | FDHMVPLVEEINRLADELNPLNASQE [C7orf26] | 0.01
75 | PRPLSILGNLLLLCSQDMLTSLTKLS [CYP2F1] | 0.33

Continued, values first:

Row | SPOT signal as a fraction of Bim BH3's signal on the same receptor and array | Binder
76 | 0.02 | KCRHEEVVQVLRNAGEEVTLTVSFLK [SNTG1]
77 | 0.04 | PVGYLVESGRLSVMGCDVLKAVSDYF [MFI2]
78 | 0.01 | DSLAKFAGRKLKDCGEDLLVEISEVL [PCM1]
79 | 0.08 | KRALIQCAKDIAKASDEVTRLAKEVA [VCL]
80 | 0.02 | FQQTISCPEGLRLVGSEVGDRTLPGW [IRF3]
81 | 0.48 | RTNNYQLSDELRKNGVELTSLRQKVA [GRIPAP1]
82 | 0.15 | GMTSEQVAQVLRNCGNSVRMLVARDP [INADL]
83 | 0.13 | YNLKSPAVKRLMKEAAELKDPTDHYH [UBE2J1]
84 | 0.03 | RIEERKAIIGLYNYAHEMTHGASDRE [NCKAP1]
85 | 0.04 | ASGNKEMIEALKQYAMDYSNKALEKG [IFIT3]
86 | 0.11 | CLKRCRSAQVLHLYGATYSADGEDRA [NLRP12]
87 | 0.04 | TCLNRGFSRLLDNMAEFFRPTEQDLQ [PEX3]
88 | 0.02 | FVGCEFLHHLLREWGEELQAVLRSSQ [GEMIN4]

Target: T3, Mcl-1, Q07820
Test: as above

Row | Binder | SPOT signal as a fraction of Bim BH3's signal on the same receptor and array
89 | CQGDTVISECLQRFADSLQEVVNYHM [ACAP3] | 0.02
90 | RAIPIKQGILLKRSGKSLNKEWKKKY [AGAP3] | 0.35
91 | TSQTEGLSRLLRQHAEDLNSGPLSKL [FES] | 0.02
92 | EKNLPKMAEALAHGADVNWANSEENK [ACAP2] | 0.02
93 | LGHTGLACLFLKRGADLGARDSEGRD [ACAP1] | 0.045
94 | AEHEDDLPENLSEIADLWNSPTRTHG [CDH23] | 0.02
95 | EVKQSMSSQSLDKAAEDMPEAEQDLE [APBA1] | 0.02
96 | FDHMVPLVEEINRLADELNPLNASQE [C7orf26] | 0.02
97 | PRPLSILGNLLLLCSQDMLTSLTKLS [CYP2F1] | 0.08

Continued, values first:

Row | SPOT signal as a fraction of Bim BH3's signal on the same receptor and array | Binder
98 | 0.02 | KCRHEEVVQVLRNAGEEVTLTVSFLK [SNTG1]
99 | 0.03 | PVGYLVESGRLSVMGCDVLKAVSDYF [MFI2]
100 | 0.02 | DSLAKFAGRKLKDCGEDLLVEISEVL [PCM1]
101 | 0.03 | KRALIQCAKDIAKASDEVTRLAKEVA [VCL]
102 | 0.02 | FQQTISCPEGLRLVGSEVGDRTLPGW [IRF3]
103 | 0.19 | RTNNYQLSDELRKNGVELTSLRQKVA [GRIPAP1]
104 | 0.07 | GMTSEQVAQVLRNCGNSVRMLVARDP [INADL]
105 | 0.05 | YNLKSPAVKRLMKEAAELKDPTDHYH [UBE2J1]
106 | 0.03 | RIEERKAIIGLYNYAHEMTHGASDRE [NCKAP1]
107 | 0.03 | ASGNKEMIEALKQYAMDYSNKALEKG [IFIT3]
108 | 0.06 | CLKRCRSAQVLHLYGATYSADGEDRA [NLRP12]
109 | 0.04 | TCLNRGFSRLLDNMAEFFRPTEQDLQ [PEX3]
110 | 0.04 | FVGCEFLHHLLREWGEELQAVLRSSQ [GEMIN4]

Source: publication PMC4072508, “Genome-Wide Prediction and Validation of Peptides That Bind Human Prosurvival Bcl-2 Proteins” (PLoS Computational Biology, 2014)
